Square brackets hold non-standard residues; d marks the D form. Ends that are not written are not given here. * marks the point of attachment. Palmitoyl = CCCCCCCCCCCCCCCC(=O)*; pS = N[C@@H](COP(=O)(O)O)C(=O)O
Experiments:
[1] = Coassembly of negatively and positively charged peptide amphiphiles; format: physicochemical; conditions: 10 mg/mL, mixed with approximately 3 molar equivalents of SEQ ID NO:22
From the text: This example illustrates the self assembly of negatively charged peptide amphiphiles using positively charged peptide amphiphiles, coassembly, to induce nanofiber gel formation. […] Similar approaches may be applied using variations the charged molecules involved.

[2] = Gelation / self assembly of peptide amphiphile solutions, TEM of bulk gels; format: physicochemical
Procedure: Synthesis of peptide amphiphile, SEQ ID NO:1, was synthesized with standard Fmoc chemistry on an Applied Biosystems […] automated peptide synthesizer. The peptide was grown from the C terminus to N terminus with the sequence CCCCGGGSS(P)DS(P)D, SEQ ID NO:1, and the N terminus was capped with a 16 carbon fatty acid. The synthesis of the peptide amphiphile, SED ID NO:1, was verified by ESI mass spectroscopy indicating correct molecular weight. […] To confirm the formation of fibers, transmission electron microscopy (TEM) images of these bulk gels were taken and are shown in FIG. 3. Fibers on the order of 5-10 nm in diameter can be seen, as well as globular micelles ranging from 10-15 nm in diameter.

[3] = tested on: MC3T3-E1 mouse calvarial osteoblasts; experiment: Growth and differentiation of MC3T3-E1 osteoblasts on self assembled nanofibers coated on glass; format: cell-based
Procedure: Cell culture preparation includes treating glass coverslips overnight in 100% ethanol. […] of SEQ ID NO:1, was spin-coated at 1500 r.p.m. for 30 seconds onto the treated glass cover slips. Samples were dried under vacuum to promote self-assembly on the glass surface. Samples were then immersed in 10% iodine for 15 minutes to cross-link the assembled PA nanofibers. Cross-linked samples were thoroughly, but gently rinsed by immersion in water 3×. Rinsed slides were dried by vacuum desiccation and placed in a 24-well tissue culture well plate. MC3T3-E1 mouse calvarial osteoblasts were plated at 10,000 cells/coverslip in 1 mL of MEM-a culture medium containing 10% fetal bovine serum, 1% penicillin/streptomycin, 30 mM β-glycerolphosphate, and […] ascorbic acid. The medium was exchanged every 3 days.

Substance | result of coassembly [1] | gelation of solution ([2]; 1% and 0.1% solutions, HCl and Ca2+ addition) | globular micelle diameter (TEM) ([2]; bulk gels) | nanofiber diameter (TEM) ([2]; bulk gels) | cell adhesion and spreading on nanofiber-coated glass slides ([3]; MC3T3-E1, 10,000 cells/coverslip, iodine cross-linked nanofibers) | osteoblastic differentiation, mineral by Von Kossa staining ([3]; MC3T3-E1, 17 days of culture) | cell layer on self assembled peptide amphiphile coated glass ([3]; MC3T3-E1, after 12 days (FIG. 4B legend))
SEQ ID NO:25: peptide amphiphiles having an SSDSD peptide sequence; negatively charged; possibly the SEQ ID NO:1 amphiphile (also: alkyl tail) | self-supporting PA nanofiber gel |  |  |  |  |  | 
C16H31O-CCCCGGGSS(P)DS(P)D (Palmitoyl-CCCCGGGS[pS]D[pS]D; not fully specified (C-terminus); cysteine pairing not given here) [SEQ ID NO 1, peptide amphiphile: alkyl tail C16H31O, structural peptide CCCCGGG, functional peptide SS*DS*D] |  | found to gel | 10-15 nm | 5-10 nm | adhering and spreading | producing significant mineral | confluent layer

— patent publication US7534761B1, “Charged peptide-amphiphile solutions and self-assembled peptide nanofiber networks formed therefrom” (North Western University, priority 2002, dated 2009)
